Where “and” joins values, the source holds several entries; their conditions need not be identical. Equal entries are not always repeated. Blank lines part the entries; values can stand above or below the binder they belong to.
Tests used:
[1] = biological target: T1, human CD3 on cells (Jurkat cells, human T cells) (human, UniProt P07766 23-207); test: flow cytometry, human CD4+ T cells
T1 construct: whole, on cells
Protocol: (§1) Binding of CD20xCD3 bispecific or SAFE-bispecific antibodies to purified human CD3+ T cells was determined by flow cytometry. Briefly, human or monkey PBMC were freshly purified with Ficoll gradient solution—Histopaque 1077 (Sigma) from a healthy donor and CD3+ T cells were isolated using EasySep™ Human T cell Enrichment Kit (StemCell). Before staining, […] human Fc receptors on CD3+ T cells were blocked with Human Fc Block (BD). Then cells were incubated with fluorescence labeled antibody mixture (APC-Cy7 Mouse Anti-human CD3, PerCP-CyTM5.5 Anti-human CD4 and FITC anti-human CD8) for 15 minutes at 4° C. After washing the cells once with PBS supplemented with 2% FBS, cells were aliquoted to 96-well plates at 2×10⁵ cells per well, and cells were incubated with serial diluted bispecific, SAFE-bispecific or IgG1 isotype control antibodies for 30 minutes at 4° C. After washing the cells twice with PBS supplemented with 2% FBS, cell surface bound antibody was detected by incubating the cells with APC-labeled mouse anti-human IgG Fc secondary antibody for 30 minutes at 4° C. Cells were washed and detected by FACS using Cytoflex (BeckMan) and data was analyzed by FlowJo. The mean fluorescence (MFI) of each antibody binding to human or monkey CD4+ T cells and CD8+ T cell populations were fitted with four-parameter non-linear regression to get EC₅₀ values by GraphPad Prism software.

[2] = biological target: T2, human CD20 on cells (human B cells; Raji, SU-DHL-8, SU-DHL-4, A3KAW, NAMALWA) (human, UniProt P11836 1-297); test: flow cytometry, Raji cells
T2 construct: whole, on cells
T2 sequence (looked up): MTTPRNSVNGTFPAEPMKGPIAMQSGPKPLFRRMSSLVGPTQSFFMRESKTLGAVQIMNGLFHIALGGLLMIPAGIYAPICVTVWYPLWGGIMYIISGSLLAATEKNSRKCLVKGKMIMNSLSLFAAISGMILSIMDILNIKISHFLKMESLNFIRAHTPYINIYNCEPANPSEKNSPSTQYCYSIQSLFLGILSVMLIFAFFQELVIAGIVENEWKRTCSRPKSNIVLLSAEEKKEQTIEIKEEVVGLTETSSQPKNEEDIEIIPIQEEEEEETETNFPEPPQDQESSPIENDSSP
Protocol: (§2) Raji, SU-DHL-8, SU-DHL-4, A3KAW and NAMALWA were B-cell lymphoma cell lines with various CD20 expression levels on cell surface. Briefly, the test antibodies were serial diluted and were incubated with the tumor cells on ice. After washing, the cells were subsequently incubated with the APC-labelled anti-human-Fc secondary antibody (BioLegend) on ice. The cells were then washed with PBS prior to analysis by the CytoFLEX flow cytometer (Beckman Coulter). The data was analyzed by FlowJo software.

[3] = biological target: T2, human CD20 on cells (human B cells; …); test: flow cytometry, A3KAW cells
Protocol: as §2

[4] = biological target: T1, human CD3 on cells (Jurkat cells, human …); test: flow cytometry, human CD3+ T cells
Text: (§3) Human PBMCs were freshly isolated from the blood of healthy donors by density gradient centrifugation using Histopaque-1077 (Sigma). Human CD3+ T cells were further isolated from PBMCs using the Human T Cell Enrichment Kit (Stem Cell Technologies). Monkey PBMCs were isolated from a naïve cynomolgus monkey by density gradient centrifugation using Histopaque-1077 (Sigma). Monkey CD3+ T cells were isolated from PBMCs using the Pan T Cell Isolation Kit Non-Human Primate (Miltenyi Biotec). Purified human or monkey CD3+ T cells were stained with the testing antibodies as the primary antibody and the APC-labelled anti-human-Fc antibody (BioLegend) as the secondary antibody. After washing, the cells were analyzed on the CytoFLEX flow cytometer (Beckman Coulter) and the data was analyzed by FlowJo software.

[5] = biological target: T2, human CD20 on cells (human B cells; …); test: flow cytometry, human B cells
Text: (§4) Human and monkey PBMCs were isolated as mentioned above. Human B cells were further isolated from PBMCs using the EasySep™ Human B Cell Isolation Kit (Stem Cell Technologies). Monkey B cells were isolated from PBMCs using the Non-Human B Primate Cell Isolation Kit (Stem Cell Technologies). Purified human or monkey B cells were stained with the testing antibodies as the primary antibody and the APC-labelled anti-human-Fc antibody (BioLegend) as the secondary antibody. After washing, the cells were analyzed on the CytoFLEX flow cytometer (Beckman Coulter) and the data was analyzed by FlowJo software.

[6] = biological target: T2, human CD20 on cells (human B cells; …); test: flow cytometry, SU-DHL-4 cells
Protocol: as §2

[7] = biological target: T3, cynomolgus monkey CD3 on T cells (cynomolgus monkey, UniProt Q95LI5 22-198); test: flow cytometry, monkey CD3+ T cells
T3 construct: whole, on cells
T3 sequence (Q95LI5 22-198): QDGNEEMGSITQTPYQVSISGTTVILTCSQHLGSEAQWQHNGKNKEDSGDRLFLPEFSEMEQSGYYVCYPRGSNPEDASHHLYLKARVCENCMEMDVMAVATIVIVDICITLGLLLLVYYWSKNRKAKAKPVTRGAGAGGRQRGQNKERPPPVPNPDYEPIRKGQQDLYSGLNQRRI
Text: as §3

[8] = biological target: T1, human CD3 on cells (Jurkat cells, human …); test: flow cytometry, human CD8+ T cells
Protocol: as §1

[9] = biological target: T2, human CD20 on cells (human B cells; …); test: flow cytometry, SU-DHL-8 cells
Protocol: as §2

[10] = biological target: T2, human CD20 on cells (human B cells; …); test: flow cytometry, NAMALWA cells
Protocol: as §2

[11] = biological target: T4, cynomolgus monkey CD20 on B cells (cynomolgus monkey, UniProt M4ZHZ6 1-297); test: flow cytometry, monkey B cells
T4 construct: whole, on cells
T4 sequence: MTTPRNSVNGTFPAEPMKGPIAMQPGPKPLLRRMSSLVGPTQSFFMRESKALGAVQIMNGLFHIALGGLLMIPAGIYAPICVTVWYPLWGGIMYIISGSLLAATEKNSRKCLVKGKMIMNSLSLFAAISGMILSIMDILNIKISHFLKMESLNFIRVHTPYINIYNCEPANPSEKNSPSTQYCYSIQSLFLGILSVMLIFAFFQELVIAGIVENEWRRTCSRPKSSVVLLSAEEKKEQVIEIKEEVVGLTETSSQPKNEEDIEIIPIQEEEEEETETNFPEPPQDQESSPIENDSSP
Text: as §4

[12] = biological target: T3, cynomolgus monkey CD3 on T cells; test: flow cytometry, monkey CD8+ T cells
Protocol: as §1

[13] = biological target: T3, cynomolgus monkey CD3 on T cells; test: flow cytometry, monkey CD4+ T cells
Protocol: as §1

[14] = biological target: T1, human CD3 on cells (Jurkat cells, human …); test: Jurkat cell binding
[15] = biological target: T1, human CD3 on cells (Jurkat cells, human …); test: Jurkat cell binding; remark: listed apart in the source

T1 sequence (P07766 23-207): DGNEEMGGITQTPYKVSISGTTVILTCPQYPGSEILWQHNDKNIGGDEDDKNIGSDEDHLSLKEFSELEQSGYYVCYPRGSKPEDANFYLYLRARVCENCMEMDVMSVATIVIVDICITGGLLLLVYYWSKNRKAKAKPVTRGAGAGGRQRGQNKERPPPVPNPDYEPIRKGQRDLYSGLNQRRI

EC50 [15]: 6.88 nM
B3: TY25525 (bispecific antibody, human IgG1, kappa, N297A)
light: not shown
heavy: not shown
chain: QAVVTQEPSLTVSPGGTVTLTCGSSTGAVTTSNYPNWVQQKPGQAPRGLIGGTNKRAPGVPARFSGSLLGGKAALTLSGAQPEDEAEYYCALWYSNLWVFGGGTKLTVLGGGGSGGGGSGGGGSGGGGSEVQLVESGGGLVKPGGSLRLSCAASGFTFSSYAINWVRQAPGKGLEWVGRIRSKYNNYATYYAESVKGRFTISRDDSKNTLYLQINSLRAEDTAVYYCVRHGNFGNSYVSYWAYWGQGTLVTVSSEPKSSDKTHTCPPCPAPELLGGPSVFLFPPKPKDTLMISRTPEVTCVVVDVSHEDPEVKFNWYVDGVEVHNAKTKPREEQYASTYRVVSVLTVLHQDWLNGKEYKCKVSNKALPAPIEKTISKAKGQPREPQVYTDPPSRDELTKNQVSLTCLVDGFYPSDIAVEWESNGQPENCYKTTPPVLDSDGSFFLYSKLTVDKSRWQQGNVFSCSVMHEALHNHYTQDSLSLSPGK

EC50 [14]: 15.3 nM and 10.2 nM
B4: TY24051 (bispecific antibody)
light: not shown
heavy: not shown
chain: QAVVTQEPSLTVSPGGTVTLTCGSSTGAVTTSNYANWVQQKPGQAPRGLIGGTNKRAPGVPARFSGSLLGGKAALTLSGAQPEDEAEYYCALWYSNLWVFGGGTKLTVLRGGGGSGGGGSGGGGSGGGGSEVQLVESGGGLVQPGGSLRLSCAASGFTFNTYAMNWVRQAPGKGLEWVGRIRSKYNNYATYYADSVKGRFTISRDDSKNTLYLQMNSLRAEDTAVYYCVRHGNFGNSYVSWFAYWGQGTLVTVSSEPKSSDKTHTCPPCPAPELLGGPSVFLFPPKPKDTLMISRTPEVTCVVVDVSHEDPEVKFNWYVDGVEVHNAKTKPREEQYASTYRVVSVLTVLHQDWLNGKEYKCKVSNKALPAPIEKTISKAKGQPREPQVYTDPPSRDELTKNQVSLTCLVDGFYPSDIAVEWESNGQPENCYKTTPPVLDSDGSFFLYSKLTVDKSRWQQGNVFSCSVMHEALHNHYTQDSLSLSPGK
notes: also called parental HER2xCD3 bispecific antibody; anti-CD3 variant TAC2225

More lines, now with the values behind:

B1: TAC2392 (bispecific antibody)
light: QIVLTQSPSSLSASVGDRVTITCRASSSVSYIHWFQQKPGKSPKPLIYATSNLASGVPVRFSGSGSGTDYTLTISSLQPEDFATYYCQQWTSNPPTFGGGTKVEIKRTVAAPSVFIFPPSDEQLKSGTASVVCLLNNFYPREAKVQWKVDNALQSGNSQESVTEQDSKDSTYSLSSTLTLSKADYEKHKVYACEVTHQGLSSPVTKSFNRGEC
heavy: QVQLVQSGAEVKKPGASVKVSCKASGYTFTSYNMHWVRQAPGQGLEWMGAIYPGNGDTSYNQKFQGRVTITADKSISTAYMELSSLRSEDTAVYYCARSTYYGGDWYFNVWGAGTLVTVSSASTKGPSVFPLAPSSKSTSGGTAALGCLVKDYFPEPVTVSWNSGALTSGVHTFPAVLQSSGLYSLSSVVTVPSSSLGTQTYICNVNHKPSDTKVDKKVEPKSCDKTHTCPPCPAPPVAGPSVFLFPPKPKDTLMISRTPEVTCVVVDVKHEDPEVKFNWYVDGVEVHNAKTKPREEEYNSTYRVVSVLTVLHQDWLNGKEYKCKVSNKALPAPIEKTISKAKGQPREPQVYTLPPSREEMTKNQVSLTCDVSGFYPSDIAVEWESDGQPENNYKTTPPVLDSDGSFFLYSKLTVDKSRWEQGDVFSCSVMHEALHNHYTQKSLSLSPGK
chain: not shown
notes: also called CD20xCD3 bispecific antibody
EC50 [1]: 62.1 nM | EC50 [2]: 135 nM | Max MFI [2]: 22000 MFI | EC50 [3]: 487 nM | Max MFI [3]: 675000 MFI | EC50 [4]: 6.92 nM | max MFI [4]: 6490 MFI | EC50 [5]: 12.6 nM | max MFI [5]: 32300 MFI | EC50 [6]: 26.9 nM | Max MFI [6]: 2.29e+06 MFI | EC50 [7]: 26.6 nM | max MFI [7]: 3200 MFI | EC50 [8]: 37.2 nM | EC50 [9]: 48.6 nM | Max MFI [9]: 3640 MFI | EC50 [10]: 592 nM | Max MFI [10]: 447000 MFI | EC50 [11]: 83.8 nM | max MFI [11]: 6020 MFI | EC50 [12]: 58.6 nM | EC50 [13]: 120 nM

B2: TY25023 (bispecific antibody, human IgG1, kappa, N297A)
light: not shown
heavy: not shown
chain: EAVVTQEPSLTVSPGGTVTLTCGSSTGAVTTSNYPNWVQQKPGQAPRGLIGGTNKRAPGTPARFSGSLLGGKAALTLSGAQPEDEAEYYCALWYSDLWVFGGGTKLTVLGGGGSGGGGSGGGGSGGGGSEVQLVESGGGLVQPGGSLRLSCAASGFTFSTYAINWVRQAPGKGLEWVSRIRSKYNNYATYYAESVKDRFTISRDDSKNTLYLQINSLRAEDTAVYYCVRHGNFGTSYVSWFAYWGQGTLVTVSSEPKSSDKTHTCPPCPAPELLGGPSVFLFPPKPKDTLMISRTPEVTCVVVDVSHEDPEVKFNWYVDGVEVHNAKTKPREEQYASTYRVVSVLTVLHQDWLNGKEYKCKVSNKALPAPIEKTISKAKGQPREPQVYTDPPSRDELTKNQVSLTCLVDGFYPSDIAVEWESNGQPENCYKTTPPVLDSDGSFFLYSKLTVDKSRWQQGNVFSCSVMHEALHNHYTQDSLSLSPGK
notes: also called anti-CD3 variant TY24742
EC50 [14]: > 1000 nM and 480 nM

Reference: US20250326860A1 (ADAGENE PTE, published 2025)
